Common to all, as to assay: two-hybrid; pairwise split-ubiquitin yeast two-hybrid of four baits (slToc159-1AGM, -1GM, -2AGM, -2GM) with isolated prey vectors in NMY51; qualitative PXG assay and quantitative β-galactosidase activity in 96-well plates, 60 min, mean of three experiments
The target in experiment [1] is slToc159-1GM bait protein (tomato (Solanum lycopersicum)).
In experiment [2] the target is slToc159-2GM bait protein (tomato (Solanum lycopersicum)).
In experiment [3] the target is slToc159-2AGM bait protein (tomato (Solanum lycopersicum)).
For experiment [4], the target named is slToc159-1AGM bait protein (tomato (Solanum lycopersicum)).

In the case of “RuBisCO small subunit 3 (natural protein)”, in experiment [1], the decrease in interaction strength (β-galactosidase activity) against slToc159-1AGM was 24.5%. In experiment [2], this substance had a decrease in affinity (β-galactosidase activity) against Toc159-2AGM of 37.1%.

With “Heat shock cognate 70 kDa protein (natural protein)”, in experiment [3], the increase in interaction strength (β-galactosidase activity) against slToc159-2GM amounted to 406%.

Substance “Chlorophyll a-b binding protein 8 (natural protein)” yielded a decrease in interaction strength (β-galactosidase activity) against slToc159-1AGM in experiment [1] of 49.2%.

Regarding “thiamine biosynthesis protein (ThiC) (natural protein)”, the relative increase in interaction strength (β-galactosidase activity) against slToc159-1GM in experiment [4] stood at 476%. In experiment [3], the increase in interaction strength (β-galactosidase activity) against slToc159-2GM stood at 81.6%.

For the substance “RuBisCO small subunit 2A (natural protein)”, the decrease in interaction strength (β-galactosidase activity) against slToc159-1AGM in experiment [1] came to 62.4%. In addition, the increase in interaction strength (β-galactosidase activity) against slToc159-2AGM in experiment [2] is 615%.

Consider “Hop-interacting protein (THI026) (natural protein)”, for which, in experiment [3], the increase in interaction strength (β-galactosidase activity) against slToc159-2GM is 152%.

“photosystem II subunit S (natural protein)” showed a decrease in interaction strength (β-galactosidase activity) against slToc159-1AGM in experiment [1] of 76.6%.

As for “3-oxoacyl-[acyl-carrier-protein] reductase (natural protein)”, in experiment [3], the increase in interaction strength (β-galactosidase activity) against slToc159-2GM was found to be 61.7%.

“Photosystem I reaction center subunit II (natural protein)” yielded a decrease in interaction strength (β-galactosidase activity) against slToc159-1AGM in experiment [1] of 62%. In addition, the increase in interaction strength (β-galactosidase activity) against slToc159-2AGM in experiment [2] worked out at 57.8%.

As to “Stearoyl-[acyl-carrier-protein] 9-desaturase (natural protein)”, the relative increase in interaction strength (β-galactosidase activity) against slToc159-1GM in experiment [4] was found to be 866%. In experiment [3], the increase in interaction strength (β-galactosidase activity) against slToc159-2GM is 81.1%.

As to “Photosystem II 23 kDa protein (natural protein)”, in experiment [1], the decrease in interaction strength (β-galactosidase activity) against slToc159-1AGM is 88.7%. The decrease in affinity (β-galactosidase activity) against Toc159-2AGM in experiment [2] was determined as 89.2%.

As to “Cell division protein FtsZ (natural protein)”, the relative increase in interaction strength (β-galactosidase activity) against slToc159-1GM in experiment [4] is 66.1%.

In experiment [1], “Photosystem I reaction center subunit III (natural protein)” had a decrease in interaction strength (β-galactosidase activity) against slToc159-1AGM of 46.3%. Also, the decrease in affinity (β-galactosidase activity) against Toc159-2AGM in experiment [2] is 86%.

In experiment [1], “Chlorophyll a-b binding protein 7 (natural protein)” returned a decrease in interaction strength (β-galactosidase activity) against slToc159-1AGM of 65.4%. In experiment [2], the increase in interaction strength (β-galactosidase activity) against slToc159-2AGM stood at 21.7%.

“Chlorophyll a/b binding protein Cab-3C (natural protein)” came in with a decrease in interaction strength (β-galactosidase activity) against slToc159-1AGM in experiment [1] of 38.4%. For the same substance, the increase in interaction strength (β-galactosidase activity) against slToc159-2AGM in experiment [2] was 1360%.

Glutamine synthetase (natural protein): in experiment [4], the relative increase in interaction strength (β-galactosidase activity) against slToc159-1GM was found to be 28.8%.

“Serine hydroxymethyl transferase (natural protein)”: the increase in interaction strength (β-galactosidase activity) against slToc159-2GM in experiment [3] was 889%.

As for “Chlorophyll a-b binding protein CP24 (natural protein)”, the decrease in affinity (β-galactosidase activity) against Toc159-2AGM in experiment [2] was 75.5%.

“Chlorophyll a-b binding protein (CAB11) (natural protein)” registered a decrease in interaction strength (β-galactosidase activity) against slToc159-1AGM in experiment [1] of 20.7%.

Consider SufE-like protein 1 (natural protein), for which the increase in interaction strength (β-galactosidase activity) against slToc159-2GM in experiment [3] worked out at 509%.

The substance “Photosystem I reaction center subunit IV A (natural protein)” showed a decrease in affinity (β-galactosidase activity) against Toc159-2AGM in experiment [2] of 53.7%.

Consider “RuBisCO small subunit 1 (natural protein)”, for which the increase in interaction strength (β-galactosidase activity) against slToc159-2AGM in experiment [2] amounted to 79.9%.

Substance “Photosystem I subunit O (natural protein)” displayed a decrease in interaction strength (β-galactosidase activity) against slToc159-1AGM in experiment [1] of 93.8%. Further, the decrease in affinity (β-galactosidase activity) against Toc159-2AGM in experiment [2] was 72.7%.
